Reference: patent US20250381283A1, “METHOD FOR TREATING SOLID TUMOR” (priority 2022, published 2025)

Target: T1, TROP2 (Trophoblast cell surface antigen 2) (UniProt P09758 27-323, limits assumed)
T1 sequence (looked up): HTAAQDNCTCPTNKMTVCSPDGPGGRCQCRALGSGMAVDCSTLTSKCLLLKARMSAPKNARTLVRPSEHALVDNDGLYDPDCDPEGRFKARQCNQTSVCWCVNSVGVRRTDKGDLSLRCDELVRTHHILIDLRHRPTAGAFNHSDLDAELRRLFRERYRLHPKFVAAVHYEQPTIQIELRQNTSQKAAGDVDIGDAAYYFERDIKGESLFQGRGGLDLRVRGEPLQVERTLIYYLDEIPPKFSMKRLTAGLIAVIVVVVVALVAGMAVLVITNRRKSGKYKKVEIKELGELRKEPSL
Experiment: cell-based or functional assay

B1: ADC1 (hRS9 antibody conjugated to CB07-Exatecan) (antibody, human IgG1, kappa, DAR 4.2, V domains shown)
VH: QVQLQQSGSELKKPGASVKVSCKASGYTFTNYGMNWVKQAPGQGLKWMGWINTYTGEPTYTDDFKGRFAFSLDTSVSTAYLQISSLKADDTAVYFCARGGFGSSYWYFDVWGQGTLVTVSS
VL: DIQLTQSPSSLSASVGDRVSITCKASQDVSIAVAWYQQKPGKAPKLLIYSASYRYTGVPDRFSGSGSGTDFTLTISSLQPEDFAVYYCQQHYITPLTFGAGTKVEIKR
modifications: CB07-Exatecan linker-drug conjugated to sulfhydryls of TCEP-reduced cysteines; average DAR (p) 4.2 over the whole antibody; positions not given
- growth inhibition EC50 (CCK-8 cell proliferation, 120 h), MDA-MB-453 cells: 0.64 µg/mL
- growth inhibition EC50 (CCK-8 cell proliferation, 120 h), MDA-MB-468 cells: 0.158 µg/mL
- growth inhibition EC50 (CCK-8 cell proliferation, 120 h), MX-1 cells: 0.233 µg/mL
